Experimental data taken from publication PMC6101577.

Molecular target: T1, recombinant human SFPQ/PSF (human), P23246
T1 chain: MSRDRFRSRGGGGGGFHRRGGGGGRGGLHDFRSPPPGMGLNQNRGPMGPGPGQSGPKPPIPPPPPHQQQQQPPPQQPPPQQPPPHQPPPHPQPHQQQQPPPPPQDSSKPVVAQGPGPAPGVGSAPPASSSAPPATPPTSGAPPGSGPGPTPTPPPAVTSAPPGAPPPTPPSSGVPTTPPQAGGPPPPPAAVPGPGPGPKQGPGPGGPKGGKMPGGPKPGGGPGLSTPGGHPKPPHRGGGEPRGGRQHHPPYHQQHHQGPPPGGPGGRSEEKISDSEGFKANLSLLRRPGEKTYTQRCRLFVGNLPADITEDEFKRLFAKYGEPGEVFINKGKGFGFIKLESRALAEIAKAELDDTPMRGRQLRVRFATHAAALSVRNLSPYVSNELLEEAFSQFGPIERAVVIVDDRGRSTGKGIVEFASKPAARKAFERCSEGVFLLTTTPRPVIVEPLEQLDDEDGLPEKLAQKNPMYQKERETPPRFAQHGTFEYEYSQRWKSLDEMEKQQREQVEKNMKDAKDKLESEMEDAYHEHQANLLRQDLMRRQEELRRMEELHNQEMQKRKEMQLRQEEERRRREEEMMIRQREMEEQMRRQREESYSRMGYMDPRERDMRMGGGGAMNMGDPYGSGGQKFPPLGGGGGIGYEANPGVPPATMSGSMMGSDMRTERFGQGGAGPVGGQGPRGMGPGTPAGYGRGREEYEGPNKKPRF
Assay: SEC
Conditions: remark: other sources report otherwise

B1: recombinant human SFPQ/PSF, P23246 1-707 (natural protein)
chain: T1 chain
**Q.** For B1, which stoichiometry N is on record?
**A.** 2
